The source of these data is patent US5849890, “High affinity oligonucleotide ligands to chorionic gonadotropin hormone and related glycoprotein hormones” (NeXstar Pharmaceuticals, Inc.).

For series [1], the target named is T1, human chorionic gonadotropin (hCG) heterodimer (Homo sapiens, UniProt P01215;P0DN86 P01215:25-116,P0DN86:21-165). Put plainly: filter; conserved region mutated. Conditions: tags: Calbiochem or Vitro Diagnostics (14,000 IU/mg); chain copies: alpha/beta heterodimer (stated); label: 32P. The source says:
(§1) PCR products generated from the RNA population isolated after six cycles of selection were cloned into pUC18 and 43 clones were sequenced (Table 13). As with the high affinity ligands selected in the first SELEX experiment in this example, 37 of the sequenced ligands are capable of assuming a stem-loop structure which places the conserved, unselected, 13-nt sequence in the "loop" structure.

Series [2] has as its target T1, human chorionic gonadotropin (hCG) …. In words: filter. The following applies: tags: Calbiochem or Vitro Diagnostics (14,000 IU/mg); chain copies: alpha/beta heterodimer (stated); label: 32P.
The target in series [3] is T2, human follicle stimulating hormone (hFSH) (Homo sapiens, UniProt P01215;P01225 P01215:25-116,P01225:19-129). Put plainly: filter. Conditions: tags: Becton Dickinson; chain copies: alpha/beta heterodimer (inferred); label: 32P; possible hairpin; no G4 by RNase T1.
Series [4] has as its target T3, human thyroid stimulating hormone (hTSH) (Homo sapiens, UniProt P01215;P01222 P01215:25-116,P01222:21-132). In words: filter; not pH sensitive, pH 5.8-7.2. Conditions: tags: Becton Dickinson; chain copies: alpha/beta heterodimer (inferred); label: 32P; possible hairpin; no G4 by RNase T1.
Series [5] has as its target T1, human chorionic gonadotropin (hCG) …. In words: filter; no significant stem. The following applies: tags: Calbiochem or Vitro Diagnostics (14,000 IU/mg); chain copies: alpha/beta heterodimer (stated); label: 32P.
Excerpt: as §1

Series [6] shares this target. In words: filter; 17.2% bound at 100 nM. The following applies: tags: Calbiochem or Vitro Diagnostics (14,000 IU/mg); chain copies: alpha/beta heterodimer (stated); label: 32P; hairpin.
Series [7] has the same target. Put plainly: filter; in urine. The following applies: tags: Calbiochem or Vitro Diagnostics (14,000 IU/mg); chain copies: alpha/beta heterodimer (stated); label: 32P; hairpin.
Series [8] has the same target. In words: filter; SBB buffer. Conditions: tags: Calbiochem or Vitro Diagnostics (14,000 IU/mg); chain copies: alpha/beta heterodimer (stated); label: 32P; hairpin.
Series [9] has the same target. Put plainly: filter; +/- 3 nM (Table 5). The following applies: tags: Calbiochem or Vitro Diagnostics (14,000 IU/mg); chain copies: alpha/beta heterodimer (stated); label: 32P; G4 (RNase T1 protection in K+).
The target is the same in series [10]. Put plainly: filter; +/- 13 nM. The following applies: tags: Calbiochem or Vitro Diagnostics (14,000 IU/mg); chain copies: alpha/beta heterodimer (stated); label: 32P; intramolecular G4. The protocol: (§2) Internally-labeled RNA transcripts were prepared by including [α-^32P]ATP in T7 RNA polymerase transcription reactions. Full-length transcripts were purified on 8% denaturing polyacrylamide gels to ensure size homogeneity. Gel-purified RNA was diluted to a concentration of ~5 nM in TEM buffer, heated to 80° C. then chilled on ice to facilitate secondary structure formation. RNA concentrations were kept lower than 100 pM in binding reactions. Briefly, equal amounts of RNA were incubated with varying amounts of hormone in 50 μL of TEM buffer for 10 minutes at 37° C. RNA-protein mixtures were passed through pre-wet nitrocellulose filters (0.2μ), and the filters were immediately washed with 5 mL of binding buffer. Radioactivity retained on filters was determined by liquid scintillation counting. The quantities of RNA bound to filters in the absence of protein was determined and used for background correction. The percentage of input RNA retained on each filter was plotted against the corresponding log protein concentration. The nonlinear least square method was used to obtain the dissociation constant (K_d) (Jellinek et al. (1993) Proc. Natl. Acad. Sci. U.S.A. 90:11227–11231; Irvine et al. (1991) J. Mol. Biol. 222:739–761).

Series [11] addresses glycoprotein hormone common alpha-subunit (UniProt P01215 P01215:25-116). In words: filter. The following applies: tags: UCB-bioproducts; label: 32P. The protocol:
as §2
(§3) By incorporating a counterselection step, SELEX allowed the isolation of hCG-specific RNA ligands (Example 5, infra).

Series [12] concerns the target hCG beta-subunit (Homo sapiens, UniProt P0DN86 P0DN86:21-165). Put plainly: filter. Conditions: tags: Calbiochem or Vitro Diagnostics; label: 32P. How it is done:
as §2, §3

For series [13], the target named is T4, human luteinizing hormone (hLH) (Homo sapiens, UniProt P01215;P01229 P01215:25-116,P01229:21-141). In words: filter; Mg, pH 6.5; <2-fold change at pH 7.0. Conditions: tags: Becton Dickinson (2'-NH2 work); Scripps/Vitro Diagnostics (2'-F work); chain copies: alpha/beta heterodimer (inferred); label: 32P.
Series [14] deals with T1, human chorionic gonadotropin (hCG) …. In words: filter; Mg, pH 6.5; Kd rises >25-fold at pH 7.0. The following applies: tags: Calbiochem or Vitro Diagnostics (14,000 IU/mg); chain copies: alpha/beta heterodimer (stated); label: 32P.
Series [15] shares this target. In words: filter; +/- 9 nM. The following applies: tags: Calbiochem or Vitro Diagnostics (14,000 IU/mg); chain copies: alpha/beta heterodimer (stated); label: 32P; intramolecular G4. How it is done: as §2
The target is the same in series [16]. In words: filter; TEM or TESM, 2.1 mM Mg, pH 6.5, 37 C. The following applies: tags: Calbiochem or Vitro Diagnostics (14,000 IU/mg); chain copies: alpha/beta heterodimer (stated); label: 32P; G4 (RNase T1 protection in K+). How it is done: as §2, §3
Series [17] deals with T3, human thyroid stimulating hormone (hTSH). In words: filter; Mg, pH 6.5. The following applies: tags: Becton Dickinson; chain copies: alpha/beta heterodimer (inferred); label: 32P; G4 (RNase T1 protection in K+). How it is done: as §2, §3
Series [18] concerns the target T4, human luteinizing hormone (hLH). Put plainly: filter; Mg, pH 6.5. The following applies: tags: Becton Dickinson (2'-NH2 work); Scripps/Vitro Diagnostics (2'-F work); chain copies: alpha/beta heterodimer (inferred); label: 32P; G4 (RNase T1 protection in K+). The protocol: as §2, §3
The target in series [19] is T2, human follicle stimulating hormone …. Put plainly: filter; Mg, pH 6.5. The following applies: tags: Becton Dickinson; chain copies: alpha/beta heterodimer (inferred); label: 32P; G4 (RNase T1 protection in K+). The protocol: as §2, §3
Series [20] concerns the target T1, human chorionic gonadotropin (hCG) …. Put plainly: filter. Conditions: tags: Calbiochem or Vitro Diagnostics (14,000 IU/mg); chain copies: alpha/beta heterodimer (stated); label: 32P; two hairpins.
Series [21] deals with T4, human luteinizing hormone (hLH). In words: filter. Conditions: tags: Becton Dickinson (2'-NH2 work); Scripps/Vitro Diagnostics (2'-F work); chain copies: alpha/beta heterodimer (inferred); label: 32P; G4 (RNase T1 protection in K+). The protocol: as §2, §3
Series [22] deals with T1, human chorionic gonadotropin (hCG) …. Put plainly: filter; 5.8 +/- 2.8 nM in Table 5. The following applies: tags: Calbiochem or Vitro Diagnostics (14,000 IU/mg); chain copies: alpha/beta heterodimer (stated); label: 32P; G4 (RNase T1 protection in K+).

T4 sequence (P01215 25-116, chain 1 of 2): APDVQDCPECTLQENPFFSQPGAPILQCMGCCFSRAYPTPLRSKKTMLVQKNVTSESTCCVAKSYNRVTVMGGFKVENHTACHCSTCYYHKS
T4 sequence (P01229 21-141, chain 2 of 2): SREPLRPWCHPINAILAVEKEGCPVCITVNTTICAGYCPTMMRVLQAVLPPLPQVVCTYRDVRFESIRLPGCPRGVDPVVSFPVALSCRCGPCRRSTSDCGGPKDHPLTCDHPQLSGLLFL
T1 sequence (P01215 25-116, chain 1 of 2, other chains not shown): as the sequence (P01215 25-116, chain 1 of 2) above
T3 sequence (P01215 25-116, chain 1 of 2): as above
T3 sequence (P01222 21-132, chain 2 of 2): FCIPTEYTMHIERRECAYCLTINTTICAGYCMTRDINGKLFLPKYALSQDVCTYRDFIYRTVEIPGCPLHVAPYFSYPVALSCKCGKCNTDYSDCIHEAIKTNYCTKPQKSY
T2 sequence (P01215 25-116, chain 1 of 2): as the sequence (P01215 25-116, chain 1 of 2) above
T2 sequence (P01225 19-129, chain 2 of 2): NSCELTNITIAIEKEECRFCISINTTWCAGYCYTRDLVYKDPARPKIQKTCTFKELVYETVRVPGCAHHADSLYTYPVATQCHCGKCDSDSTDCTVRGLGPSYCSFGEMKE
Chain of glycoprotein hormone common alpha-subunit (P01215 25-116, one chain of several): as the sequence (P01215 25-116, chain 1 of 2) above

B1: 2nd generation ligand 8 (ssRNA)
RNA: GGGAGGACGAUGCGGUUCGAUUCCAAGUUGAACGAUCCUCCUUUUGAUUAGACCAGACGACUCGCCCGA
modifications: 2'-F all pyrimidines
B1 had a binding signal in series [1] of 0.73 % bound at 100 nM.

B2: 2nd generation ligand 84 (ssRNA)
RNA: GGGAGGACGAUGCGGUUGGUUAUCCAUGUUGAACGUUCCUUCAUGUCGAAUAUGCAGACGACUCGCCCGA
modifications: 2'-F all pyrimidines
B2 returned a binding signal in series [1] of 0.24 % bound at 100 nM.

B3: Class 1 ligand 28 (ssRNA)
RNA: GGGAGACAAGAAUAAACGCUCAAACAGCGAUUGAACGAUCCUUUCAGCUGAUGGGUACGGGAUUCGACAGGAGGCUCACAACAGGC
modifications: 2'-F all pyrimidines
In series [2], B3 showed a binding signal of 0.58 % bound at 100 nM.

B4: 2nd generation ligand 7 (ssRNA)
RNA: GGGAGGACGAUGCGGAUGAGCUUGAUAAUGGAACGAUCCUUUUAACGGUUCUUCCAGACGACUCGCCCGA
modifications: 2'-F all pyrimidines
In series [1], B4 gave a binding signal of 0 % bound at 100 nM.

B5: T-15 (ssRNA)
RNA: GGGAGGACGAUGCGGAUGUUGGCAGCAGGGUCCGACGGCGUAACCUUGCCAGCUGCAGACGACUCGCCCGA
modifications: 2'-NH2 all pyrimidines
Take B5: the Kd was ~200 nM in [3] and 14 nM in series [4].

B6: 2nd generation ligand 82 (ssRNA)
RNA: GGGAGGACGAUGCGGUAACAGUCGAUUCUUGAACGAUCCUUUCCACUUCAACCGCAGACGACUCGCCCGA
modifications: 2'-F all pyrimidines
Consider B6, for which the binding signal in [5] is 0 % bound at 100 nM.

B7: 2nd generation ligand 18 (ssRNA)
RNA: GGGAGGACGAUGCGGCAUUCGCUGAUUCUUGAACGAUCCUUGAUGAUGUGGAUGCAGACGACUCGCCCGA
modifications: 2'-F all pyrimidines
With B7, the Kd in series [6] was determined as 150 nM.
Turning to GGGAGUCUCGUUGGUCGUUGAACGAUCCUUCGACAGGAGGCUCA (ssRNA, 2'-F all pyrimidines) [hCG ligand 9TR1], the Kd amounted to 100 nM in series [7] and 200 nM in series [8].

B8: 2nd generation ligand 95 (ssRNA)
RNA: GGGAGGACGAUGCGGGUUUUCCUACUAGUUGAAUGAUCCUUCUAGUUAGAUGCCAGACGACUCGCCCGA
modifications: 2'-F all pyrimidines
Molecule B8 yielded a binding signal in [1] of 1.57 % bound at 100 nM.

B9: H-17 (ssRNA)
RNA: GGGAGGACGAUGCGGAGGGAACGCGGAGGGGUGUGUCCCCCAGACUACAAGGCGGCAGACGACUCGCCCGA
modifications: 2'-NH2 all pyrimidines
For B9, the Kd in [9] is 7.5 nM.

B10: 2nd generation ligand 76 (ssRNA)
RNA: GGGAGGACGAUGCGGACCGACUAAAUGAUUGAACGAUCCUUAUUGUCUCUAUCACAGACGACUCGCCCGA
modifications: 2'-F all pyrimidines
In [5], B10 had a binding signal of 0.2 % bound at 100 nM.

B11: 2nd generation ligand 59 (ssRNA)
RNA: GGGAGGACGAUGCGGUAACUCUUAAUUCUUGAACAAUCCUUGAAUUUAGCGGACCAGACGACUCGCCCGA
modifications: 2'-F all pyrimidines
With B11, in series [1], the binding signal came out at 1.88 % bound at 100 nM.

B12: 2nd generation ligand 77 (ssRNA)
RNA: GGGAGGACGAUGCGGCAGUGUCAACAUCUUGAACGAUCCUUUUUUUCAGCGCGUCAGACGACUCGCCCGA
modifications: 2'-F all pyrimidines
For B12, in series [5], the binding signal is 0.42 % bound at 100 nM.
In [10], GGAGGACGAUGCGGAGGGAACGCGGAGGGGUG (ssRNA, 2'-NH2 all pyrimidines) [delta17] returned a Kd of 25 nM.

B13: H-42 (ssRNA)
RNA: GGGAGGACGAUGCGGACAAGGGCCUGAGUGUGGAGGGCACGUGGAGGGGACUGGCCAGACGACUCGCCCGA
modifications: 2'-NH2 all pyrimidines
Regarding B13, the dissociation constant (Kd) in series [11] is ~1400 nM; in [12], ~200 nM; in [13], 15 nM; in series [14] it was 6.2 nM.
In the case of GGAGGACGAUGCGGAAAGGAGGAGGCUGGGUGCGUC (ssRNA, 2'-NH2 all pyrimidines) [delta25], in [15], the dissociation constant (Kd) worked out at 24 nM.

B14: H-30 (ssRNA)
RNA: GGGAGGACGAUGCGGUACUGUAAAACAAUCUGGAGGAGGGUCUAGGGGAUGGUGGCAGACGACUCGCCCGA
modifications: 2'-NH2 all pyrimidines
For B14, the Kd in series [16] is 20 nM; in series [17], ~1600 nM; in [18], 51 nM; in [19] it was ~1700 nM.

B15: ligand 25/9 dimer (ssRNA)
RNA: GGGAGACAAGAAUAAACGCUCAACAGUGAUUGAACGAUCCUUUCAGCUGGUGGGUAUGGUCCCGGAGUCUCGUUGGUCGUUGAACGAUCCUUCGACAGGAGGCUCA
modifications: 2'-F all pyrimidines
B15: the Kd in series [20] is ~200 nM.

B16: H-25 (ssRNA)
RNA: GGGAGGACGAUGCGGAAAGGAGGAGGCUGGGUGCGUCAAGAGUUCUCCCGAGCGCCAGACGACUCGCCCGA
modifications: 2'-NH2 all pyrimidines
Turning to B16, the Kd in series [21] came out at 17.5 nM; in series [22] it was 6 nM.

B17: 2nd generation ligand 37 (ssRNA)
RNA: GGGAGGACGAUGCGGAAUUCCCCCAAGAUUGAACGGUCCUUUCUCGCAGAUGUUCAGACGACUCGCCCGA
modifications: 2'-F all pyrimidines
With B17, the binding signal in series [1] came out at 0 % bound at 100 nM.
